Measurements published in US20220073599A1 (Hoffmann-La Roche, published 2022).
Where a chain is given by its changes, count along the chain named.

T1: human VEGFA-121-His (human, UniProt P15692 181-395)
T1 construct: Prepared in-house; not shown: His tag
T1 sequence: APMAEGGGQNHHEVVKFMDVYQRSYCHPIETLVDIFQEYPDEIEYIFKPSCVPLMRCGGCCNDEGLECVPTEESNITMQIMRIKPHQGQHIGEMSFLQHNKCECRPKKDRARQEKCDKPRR

T2: human Ang2-RBD-muFc (human, UniProt O15123 275-496, limits assumed)
T2 construct: also called Human ANG2 (KinExA); not shown: murine Fc (muFc)
T2 sequence: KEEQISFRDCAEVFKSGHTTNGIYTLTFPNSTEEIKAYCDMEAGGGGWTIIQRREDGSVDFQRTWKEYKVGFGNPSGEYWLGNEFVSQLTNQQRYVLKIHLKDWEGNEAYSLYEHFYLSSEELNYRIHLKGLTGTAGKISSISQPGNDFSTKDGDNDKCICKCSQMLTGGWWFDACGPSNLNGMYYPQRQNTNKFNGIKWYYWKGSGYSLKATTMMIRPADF

B1: bispecific anti-VEGF-A/anti-ANG2 Fab fragment P1AD9820 (Fab, V domains shown)
VH: SEHLVESGGGLVKPGGSLRLSCATADFFEYDDMSWVRQAPGKGLEWVGSISPKGDHKYLNTKFIGRFTISRDDSKNTLYLQMNSLRAEDTAVYYCARDVGFFDWWGQGTLVTVSS
VL: AIYMHQEPSSLSASVGDRVTITCHGSYWLNSEVAWYQQKPGKAPKLLIFDGDFKVYEVPSRFSGSGSHEDYTLTISSLQPEDFATYYCQQYRYHPYTFGHGTKVEIKR
notes: Bispecific Fab with two paratopes in one VH/VL pair; also called P1AD9820 Fab
B2: bispecific anti-VEGF-A/anti-ANG2 Fab fragment P1AA8906 (Fab, V domains shown)
VH: DFQLVESGGGLVKPGGSLRLSCAASYEFEYDDMSWVRQAPGKGLEWVGSISPKGGSTYYNTKFIGRFTISRDNSKNTLYLQMNSLRAEDTAVYYCARDVGFFDMWGQGTLVTVSS
VL: B1 VL with N30S, S31N, E32Y, V33L, G51A, D52R, F53W, K54L, Y56H, E57G
notes: Bispecific Fab with two paratopes in one VH/VL pair (DutaFab); CH1 and Ckappa

What was measured:
human VEGFA-121-His [1] = target: T1, human VEGFA-121-His; assay: KinExA equilibrium titration in solution, VEGFA-121
human VEGFA-121-His [2] = target: T1, human VEGFA-121-His; assay: SPR, VEGF-A121-His captured by anti-His antibody, Fab injected, single cycle kinetics
Protocol: An anti-His capturing antibody (GE Healthcare 28995056) was immobilized to a Series S Sensor Chip C1 (GE Healthcare BR100535) using standard amine coupling chemistry resulting in a surface density of approximately 600 resonance units (RU). As running and dilution buffer, HBS-P+ (10 mM HEPES, 150 mM NaCl pH 7.4, 0.05% Surfactant P20) was used. […] A dilution series of the tested antibody (3.7-300 nM, 1:3 dilution) was successively injected for 60 s each, dissociation was monitored for 3600 s at a flow rate of 30 μl/min (single cycle kinetics). The surface was regenerated by injecting 10 mM Glycine pH 1.5 for 60 s at a flow of 5 μl/min. […] Curve fitting was performed using the 1:1 Langmuir binding model within the Biacore® evaluation software.

human Ang2-RBD-muFc = target: T2, human Ang2-RBD-muFc; assay: KinExA equilibrium titration in solution, constant Ang2-RBD-muFc
Protocol: All KinExA® experiments were performed at room temperature (RT) using PBS pH 7.4 with 0.01% BSA and 0.01% Tween® 20 (BioRad, #161-0781) as running buffer. […] A flow rate of 0.25 ml/min was used. A constant amount of Ang2-RBD-muFc (50 pM and in a second experiment 500 pM) was titrated with tested antibody by twofold serial dilution starting at 4 nM (concentration range 1.95 pM-4000 pM). Antigen-antibody complexes were incubated at RT for at least 8 h to allow equilibrium to be reached. Equilibrated mixtures were then drawn through a column of Anti-Ang2 antibody (MAB098) coupled beads in the KinExA® system at a volume of 750 μl for 50 pM constant Ang2 and at a volume of 188 μl for 500 pM constant Ang2 permitting unbound Ang2 to be captured by the beads without perturbing the equilibrium state of the solution. Bound Ang2 was detected using a second biotinylated anti-Ang2 antibody (BAM0981) with a concentration of 250 ng/ml and following by an injection of 250 ng/ml Streptavidin Alexa Fluor™ 647 conjugate in sample buffer. Each sample was measured in duplicates for all equilibrium experiments. The KD was obtained from non-linear regression analysis of the data using a one-site homogeneous binding model contained within the KinExA® software (Version 4.0.11) using the “standard analysis” method. […]

human VEGFA-121-His [3] = target: T1, human VEGFA-121-His; assay: KinExA equilibrium titration in solution, constant VEGFA-121-His
Protocol: All KinExA® experiments were performed at room temperature (RT) using PBS pH 7.4 with 0.01% BSA and 0.01% Tween® 20 (BioRad, #161-0781) as running buffer. […] A flow rate of 0.25 ml/min was used. […] Antigen-antibody complexes were incubated at RT for at least 8 h to allow equilibrium to be reached. […] Each sample was measured in duplicates for all equilibrium experiments. The KD was obtained from non-linear regression analysis of the data using a one-site homogeneous binding model contained within the KinExA® software (Version 4.0.11) using the “standard analysis” method. The software calculates the KD and determines the 95% confidence interval by fitting the data points to a theoretical KD curve. The 95% confidence interval is given as KD low and KD high.

Row | Binder | Kd (human VEGFA-121-His [1]) [pM] | t1/2 (human VEGFA-121-His [2]) [h] | Kd (human Ang2-RBD-muFc) [pM] | Kd (human VEGFA-121-His [3]) [pM]
1 | B1 | ~4 |  |  | 
2 | B2 |  | 42.5 | 7180 | 10.9
